This note sets out measurements from paper PMC4533228.

This assay deals with homotypic K48-polyUb cyB1-NT^K64 (GST-bound single-lysine N-terminal fragment of cyclin B1 ubiquitinated with Ub^K48) (UniProt P0CG48). Kind of assay: pull-down; resin-bound polyUb conjugates (≈20 nM) incubated with purified 26S proteasomes (10 nM) at 4°C, washed; bound proteasomes measured by cleavage of suc-LLVY-AMC at 37°C (one panel also with 300 nM hHR23A).
homotypic K48-polyUb cyB1-NT^K64 (GST-bound single-lysine N-terminal fragment of cyclin B1 ubiquitinated with Ub^K48), sequence (P0CG48 whole entry, looked up, the tested form may be a part): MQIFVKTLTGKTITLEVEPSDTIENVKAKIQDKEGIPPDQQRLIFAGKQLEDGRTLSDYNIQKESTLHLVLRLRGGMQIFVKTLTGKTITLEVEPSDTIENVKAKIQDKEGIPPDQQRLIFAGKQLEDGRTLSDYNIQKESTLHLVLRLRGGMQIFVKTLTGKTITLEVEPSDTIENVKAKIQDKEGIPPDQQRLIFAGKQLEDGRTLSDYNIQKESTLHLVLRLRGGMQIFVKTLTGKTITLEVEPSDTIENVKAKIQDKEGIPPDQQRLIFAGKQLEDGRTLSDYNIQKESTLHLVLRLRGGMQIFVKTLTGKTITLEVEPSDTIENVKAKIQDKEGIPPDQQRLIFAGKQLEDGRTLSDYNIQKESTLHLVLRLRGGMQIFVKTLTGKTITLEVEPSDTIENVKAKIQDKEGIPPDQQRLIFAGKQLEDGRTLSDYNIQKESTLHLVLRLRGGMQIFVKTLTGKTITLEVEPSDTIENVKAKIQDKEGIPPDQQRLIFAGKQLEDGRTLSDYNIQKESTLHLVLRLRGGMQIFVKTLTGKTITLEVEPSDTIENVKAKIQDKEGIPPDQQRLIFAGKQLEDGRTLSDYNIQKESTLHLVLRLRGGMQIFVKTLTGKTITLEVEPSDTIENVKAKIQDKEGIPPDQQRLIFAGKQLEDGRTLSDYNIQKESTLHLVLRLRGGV

Substance “26S proteasome purified from rabbit muscle (complex)” had a fold binding relative to K11 chains (K11-polyUb cyB1-NT^K64) of 4.5 fold.
